Kd, koff and kon data for one substance are collected here from patent publication US20120177664A1.

pKd: −log10 of the molar value.

The target in this experiment is A beta oligomer (synthetic A beta1-40, HCl form, 0.1 mg/ml in PBS, incubated at 37 degrees C for one hour) (UniProt P05067). Briefly: SPR (Biacore 3000). (In general: In SPR one partner is held on a chip, and binding of the other changes the refractive index at the surface.)

A word on the pKd: it is −log10 of the Kd, conventionally taken in molar units. Read a low pKd as a large Kd. As usually defined, the koff is a measure of how fast the partners let go of each other. Higher therefore signals a short-lived complex. The kon is the rate constant with which the complex forms. Anti-A beta antibody 6E10 had a negative logarithm of the Kd (pKd) of 8.54, a dissociation rate constant (koff) of 0.000168 s⁻¹ and a kon of 57800 M⁻¹ s⁻¹.
